Test results reported in patent US20120316071A1 (published 2012).
Blank lines part the entries; values can stand above or below the binder they belong to.

Legend:
[1] = target: T1, Recombinant Human DLL4 (R&D Systems Cat#1506-D4/CF) (human, UniProt Q9NR61 27-524); test: ECL multispot (MSD), antigen spotted, Fab in solution; blank spot 352
T1 construct: Bought recombinant protein; also called delta-like protein 4; rHuman DLL4

[2] = target: T2, rHuman Erythropoietin R/Fc Chimera, CF (R&D Systems Cat#963-ER) (human, UniProt P19235 25-250); test: as above
T2 construct: Bought reagent; also called EPO R; Epo R/Fc
T2 sequence (looked up): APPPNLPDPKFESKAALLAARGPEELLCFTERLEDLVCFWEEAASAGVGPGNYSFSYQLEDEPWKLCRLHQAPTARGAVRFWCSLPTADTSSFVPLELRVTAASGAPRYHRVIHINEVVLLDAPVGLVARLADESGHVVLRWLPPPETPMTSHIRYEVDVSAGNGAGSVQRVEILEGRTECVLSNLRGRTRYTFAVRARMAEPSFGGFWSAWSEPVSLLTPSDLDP

[3] = target: T3, rHuman CD44/Fc Chimera, CF (R&D Systems Cat#3660-CD) (human, UniProt P16070 21-220); test: as above
T3 construct: Bought reagent

[4] = target: T4, rHuman IGF-1 sR (insulin-like growth factor-1 soluble receptor), CF (R&D Systems Cat#391-GR) (human, UniProt P08069 31-932); test: as above
T4 construct: Bought soluble receptor

[5] = target: T5, rHuman EGF R/Fc Chimera, CF (R&D Systems Cat#344-ER) (human, UniProt P00533 25-645); test: as above
T5 construct: Bought reagent

[6] = target: T6, rHuman Notch-1/Fc Chimera, CF (R&D Systems Cat#3647-TK) (human, UniProt P46531 19-526); test: as above
T6 construct: Bought reagent

[7] = target: T7, rHuman P-Cadherin/Fc Chimera, CF (R&D Systems Cat#861-PC) (human, UniProt P22223 108-654); test: as above
T7 construct: Bought reagent

[8] = target: T8, rHuman HGF R/c-MET/Fc Chimera, CF (R&D Systems Cat#358-MT/CF) (human, UniProt P08581 25-932); test: as above
T8 construct: Bought reagent; also called HGF R/Fc

[9] = target: T9, rHuman ErbB2/Fc Chimera, CF (R&D Systems Cat#1129-ER) (human, UniProt P04626 23-652); test: as above
T9 construct: Bought reagent

[10] = target: T10, rHuman CD44/Fc Chimera, CF (R&D Systems Cat#3660-CD) (human, UniProt P16070 21-220); test: ECL multispot (MSD) assay, antigen spotted on plate; blank spot of this row 302
T10 construct: Bought recombinant protein; Fc part of the bought chimera not given

[11] = target: T11, rHuman Erythropoietin R/Fc Chimera, CF (R&D Systems Cat#963-ER) (human, UniProt P19235 25-250); test: as above
T11 construct: Bought recombinant protein; also called EPO R; EPO R/Fc; Fc part of the bought chimera not given
T11 sequence (looked up): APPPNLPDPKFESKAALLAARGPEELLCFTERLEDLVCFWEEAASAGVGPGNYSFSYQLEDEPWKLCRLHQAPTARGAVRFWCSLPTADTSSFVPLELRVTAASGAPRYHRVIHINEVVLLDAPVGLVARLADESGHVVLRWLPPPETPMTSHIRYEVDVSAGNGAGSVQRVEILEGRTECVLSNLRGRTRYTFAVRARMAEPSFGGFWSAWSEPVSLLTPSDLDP

[12] = target: T12, rHuman IGF-1 sR, (IGF-1 sR), CF (R&D Systems Cat#391-GR) (human, UniProt P08069 31-932); test: as above
T12 construct: Bought recombinant soluble receptor; also called insulin-like growth factor-1 soluble receptor

[13] = target: T13, rHuman Notch-1/Fc Chimera, CF (R&D Systems Cat#3647-TK) (human, UniProt P46531 19-526); test: as above
T13 construct: Bought recombinant protein; Fc part of the bought chimera not given

[14] = target: T14, Recombinant Human DLL4 (R&D Systems Cat#1506-D4/CF) (human, UniProt Q9NR61 27-524); test: as above
T14 construct: Bought recombinant protein; also called delta-like protein 4; rHuman DLL4

[15] = target: T15, rHuman EGF R/Fc Chimera, CF (R&D Systems Cat#344-ER) (human, UniProt P00533 25-645); test: as above
T15 construct: Bought recombinant protein; also called epidermal growth factor receptor; Fc part of the bought chimera not given

[16] = target: T16, rHuman ErbB2/Fc Chimera, CF (R&D Systems Cat#1129-ER) (human, UniProt P04626 23-652); test: as above
T16 construct: Bought recombinant protein; also called human epidermal growth factor 2 receptor; Fc part of the bought chimera not given

[17] = target: T17, rHuman HGF R/c-MET/Fc Chimera, CF (R&D Systems Cat#358-MT/CF) (human, UniProt P08581 25-932); test: as above
T17 construct: Bought recombinant protein; also called HGF R/Fc; hepatocyte growth factor receptor; Fc part of the bought chimera not given

[18] = target: T18, rHuman P-Cadherin/Fc Chimera, CF (R&D Systems Cat#861-PC) (human, UniProt P22223 108-654); test: as above
T18 construct: Bought recombinant protein; Fc part of the bought chimera not given

[19] = target: T10, rHuman CD44/Fc Chimera, CF (R&D Systems …); test: ECL multispot (MSD) assay, antigen spotted on plate; blank spot of this row 351
[20] = target: T11, rHuman Erythropoietin R/Fc Chimera, CF …; test: as above
[21] = target: T12, rHuman IGF-1 sR, (IGF-1 sR), CF (R&D …); test: as above
[22] = target: T13, rHuman Notch-1/Fc Chimera, CF (R&D …); test: as above
[23] = target: T14, Recombinant Human DLL4 (R&D Systems …); test: as above
[24] = target: T15, rHuman EGF R/Fc Chimera, CF (R&D …); test: as above
[25] = target: T16, rHuman ErbB2/Fc Chimera, CF (R&D …); test: as above
[26] = target: T17, rHuman HGF R/c-MET/Fc Chimera, CF (R&D …); test: as above
[27] = target: T18, rHuman P-Cadherin/Fc Chimera, CF (R&D …); test: as above
[28] = target: T10, rHuman CD44/Fc Chimera, CF (R&D Systems …); test: ECL multispot (MSD) assay, antigen spotted on plate; blank spot of this row 184
[29] = target: T11, rHuman Erythropoietin R/Fc Chimera, CF …; test: as above
[30] = target: T12, rHuman IGF-1 sR, (IGF-1 sR), CF (R&D …); test: as above
[31] = target: T13, rHuman Notch-1/Fc Chimera, CF (R&D …); test: as above
[32] = target: T14, Recombinant Human DLL4 (R&D Systems …); test: as above
[33] = target: T15, rHuman EGF R/Fc Chimera, CF (R&D …); test: as above
[34] = target: T16, rHuman ErbB2/Fc Chimera, CF (R&D …); test: as above
[35] = target: T17, rHuman HGF R/c-MET/Fc Chimera, CF (R&D …); test: as above
[36] = target: T18, rHuman P-Cadherin/Fc Chimera, CF (R&D …); test: as above

B2: Fab VH1-46_IGHD6-6*01_IGHJ1*01 S102A/S103P/S104F/H111F (APFF) & L6_IGKJ1*01 S30P (Fab, V domains shown)
VH: QVQLVQSGAEVKKPGASVKVSCKASGYTFTSYYMHWVRQAPGQGLEWMGIINPSGGSTSYAQKFQGRVTMTRDTSTSTVYMELSSLRSEDTAVYYCAREEYAPFSAEYFQFWGQGTLVTVSS
VL: EIVLTQSPATLSLSPGERATLSCRASQSVPSYLAWYQQKPGQAPRLLIYDASNRATGIPARFSGSGSGTDFTLTISSLEPEDFAVYYCQQRSNWPPWTFGQGTKVEIKR
notes: Fab made in E. coli: VH cloned into Plasmid A (CH1, His6 and Flag tags), kappa VL into Plasmid C (kappa CL); also called APFF / S30P
- ECL signal [10]: 411
- ECL signal [11]: 418
- ECL signal [12]: 312
- ECL signal [13]: 346
- ECL signal [14]: 1260
- ECL signal [15]: 385
- ECL signal [16]: 358
- ECL signal [17]: 383
- ECL signal [18]: 413

B3: Fab VH1-46_IGHD6-6*01_IGHJ1*01 S102A/S103P/S104F/H111F (APFF) & L6_IGKJ1*01 S30G (Fab, V domains shown)
VH: QVQLVQSGAEVKKPGASVKVSCKASGYTFTSYYMHWVRQAPGQGLEWMGIINPSGGSTSYAQKFQGRVTMTRDTSTSTVYMELSSLRSEDTAVYYCAREEYAPFSAEYFQFWGQGTLVTVSS
VL: EIVLTQSPATLSLSPGERATLSCRASQSVGSYLAWYQQKPGQAPRLLIYDASNRATGIPARFSGSGSGTDFTLTISSLEPEDFAVYYCQQRSNWPPWTFGQGTKVEIKR
notes: Fab made in E. coli: VH cloned into Plasmid A (CH1, His6 and Flag tags), kappa VL into Plasmid C (kappa CL); also called APFF / S30G
- ECL signal [19]: 343
- ECL signal [20]: 480
- ECL signal [21]: 304
- ECL signal [22]: 346
- ECL signal [23]: 178000
- ECL signal [24]: 298
- ECL signal [25]: 260
- ECL signal [26]: 263
- ECL signal [27]: 397

Further lines, results first:

- ECL signal [1]: 175000
- ECL signal [2]: 525
- ECL signal [3]: 437
- ECL signal [4]: 362
- ECL signal [5]: 400
- ECL signal [6]: 296
- ECL signal [7]: 396
- ECL signal [8]: 297
- ECL signal [9]: 241
B1: Fab VH1-46_IGHD6-6*01_IGHJ1*01 S102A/S103P/S104F/H111F (APFF) & L6_IGKJ1*01 S30N (Fab, V domains shown)
VH: QVQLVQSGAEVKKPGASVKVSCKASGYTFTSYYMHWVRQAPGQGLEWMGIINPSGGSTSYAQKFQGRVTMTRDTSTSTVYMELSSLRSEDTAVYYCAREEYAPFSAEYFQFWGQGTLVTVSS
VL: EIVLTQSPATLSLSPGERATLSCRASQSVNSYLAWYQQKPGQAPRLLIYDASNRATGIPARFSGSGSGTDFTLTISSLEPEDFAVYYCQQRSNWPPWTFGQGTKVEIKR
notes: Tested as Fab made in E. coli: VH joined to CH1 from Plasmid A (His6 and Flag tags), VL joined to kappa CL from Plasmid C; also called APFF / S30N

- ECL signal [28]: 451
- ECL signal [29]: 475
- ECL signal [30]: 342
- ECL signal [31]: 364
- ECL signal [32]: 187000
- ECL signal [33]: 337
- ECL signal [34]: 295
- ECL signal [35]: 311
- ECL signal [36]: 317
B4: Fab VH1-46_IGHD6-6*01_IGHJ1*01 S102A/S103P/S104F/H111F (APFF) & L6_IGKJ1*01 S30A (Fab, V domains shown)
VH: QVQLVQSGAEVKKPGASVKVSCKASGYTFTSYYMHWVRQAPGQGLEWMGIINPSGGSTSYAQKFQGRVTMTRDTSTSTVYMELSSLRSEDTAVYYCAREEYAPFSAEYFQFWGQGTLVTVSS
VL: EIVLTQSPATLSLSPGERATLSCRASQSVASYLAWYQQKPGQAPRLLIYDASNRATGIPARFSGSGSGTDFTLTISSLEPEDFAVYYCQQRSNWPPWTFGQGTKVEIKR
notes: Fab made in E. coli: VH cloned into Plasmid A (CH1, His6 and Flag tags), kappa VL into Plasmid C (kappa CL); also called APFF / S30A
